Source: patent publication US20190241648A1 (STATEN BIOTECHNOLOGY B V, published 2019)
Ends that are not written are not given here.

Experiments:
Assay in all cases: peptide microarray
ApoC3 peptide … D59S = biological target: T1, ApoC3 peptide … D59S (human, cyclic constrained)
T1 peptide: SKFSEFWDLDPEV
How it was run: (§1)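 ApoC3 peptide microarrays incubated with antibody samples and then stained with goat anti-human IgG (Fc) DyLight680 plus anti-HA DyLight800 control antibody. Scanned at intensity 7/7 (red/green); a secondary-only prestain checked for background, and framing HA peptides served as quality control.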

ApoC3 peptide … F61P = biological target: T2, ApoC3 peptide … F61P (human, not fully specified (bridges); also: cyclic constrained)
T2 peptide: DKPSEFWDLDPEV
How it was run: as §1

ApoC3 peptide … K60I = biological target: T3, ApoC3 peptide … K60I (human, not fully specified (bridges); also: cyclic constrained)
T3 peptide: DIFSEFWDLDPEV
How it was run: as §1

ApoC3 peptide … F64S = biological target: T4, ApoC3 peptide … F64S (human, not fully specified (bridges); also: cyclic constrained)
T4 peptide: DKFSESWDLDPEV
How it was run: as §1

ApoC3 peptide … F61Q = biological target: T5, ApoC3 peptide … F61Q (human, not fully specified (bridges); also: cyclic constrained)
T5 peptide: DKQSEFWDLDPEV
How it was run: as §1

ApoC3 peptide … W65H = biological target: T6, ApoC3 peptide … W65H (human, not fully specified (bridges); also: cyclic constrained, ring type and places not given here)
T6 peptide: DKFSEFHDLDPEV
How it was run: as §1

ApoC3 peptide … E70L = biological target: T7, ApoC3 peptide … E70L (human, not fully specified (bridges); also: cyclic constrained)
T7 peptide: DKFSEFWDLDPLV
How it was run: as §1

ApoC3 peptide … F64T = biological target: T8, ApoC3 peptide … F64T (human, not fully specified (bridges); also: cyclic constrained)
T8 peptide: DKFSETWDLDPEV
How it was run: as §1

ApoC3 peptide … V71E = ApoC3 peptide … V71E (human, cyclic constrained)
How it was run: as §1

ApoC3 peptide … K60A = biological target: T9, ApoC3 peptide … K60A (human, not fully specified (bridges); also: cyclic constrained)
T9 peptide: DAFSEFWDLDPEV
How it was run: as §1

ApoC3 peptide … K60L = biological target: T10, ApoC3 peptide … K60L (human, not fully specified (bridges); also: cyclic constrained)
T10 peptide: DLFSEFWDLDPEV
How it was run: as §1

ApoC3 peptide … E63H = ApoC3 peptide … E63H (human, cyclic constrained)
How it was run: as §1

ApoC3 peptide … D66S = biological target: T11, ApoC3 peptide … D66S (human, not fully specified (bridges); also: cyclic constrained)
T11 peptide: DKFSEFWSLDPEV
How it was run: as §1

ApoC3 peptide … V71P = ApoC3 peptide … V71P (human, cyclic constrained)
How it was run: as §1

ApoC3 peptide … F64M = biological target: T12, ApoC3 peptide … F64M (human, not fully specified (bridges); also: cyclic constrained)
T12 peptide: DKFSEMWDLDPEV
How it was run: as §1

ApoC3 peptide … D66C = biological target: T13, ApoC3 peptide … D66C (human, not fully specified (bridges); also: cyclic constrained)
T13 peptide: DKFSEFWCLDPEV
How it was run: as §1

ApoC3 peptide … L67Q = biological target: T14, ApoC3 peptide … L67Q (human, not fully specified (bridges); also: cyclic constrained)
T14 peptide: DKFSEFWDQDPEV
How it was run: as §1

ApoC3 peptide … L67S = biological target: T15, ApoC3 peptide … L67S (human, not fully specified (bridges); also: cyclic constrained)
T15 peptide: DKFSEFWDSDPEV
How it was run: as §1

ApoC3 peptide … D66G = biological target: T16, ApoC3 peptide … D66G (human, not fully specified (bridges); also: cyclic constrained)
T16 peptide: DKFSEFWGLDPEV
How it was run: as §1

ApoC3 peptide … D66H = biological target: T17, ApoC3 peptide … D66H (human, not fully specified (bridges); also: cyclic constrained)
T17 peptide: DKFSEFWHLDPEV
How it was run: as §1

ApoC3 peptide … D59Y = biological target: T18, ApoC3 peptide … D59Y (human, not fully specified (bridges); also: cyclic constrained)
T18 peptide: YKFSEFWDLDPEV
How it was run: as §1

ApoC3 peptide … D68N = biological target: T19, ApoC3 peptide … D68N (human, cyclic constrained)
T19 peptide: DKFSEFWDLNPEV
How it was run: as §1

ApoC3 peptide … V71Y = ApoC3 peptide … V71Y (human, cyclic constrained)
How it was run: as §1

ApoC3 peptide … P69I = biological target: T20, ApoC3 peptide … P69I (human, not fully specified (bridges); also: cyclic constrained)
T20 peptide: DKFSEFWDLDIEV
How it was run: as §1

ApoC3 peptide … W65E = ApoC3 peptide … W65E (human, cyclic constrained)
How it was run: as §1

ApoC3 peptide … L67R = biological target: T21, ApoC3 peptide … L67R (human, not fully specified (bridges); also: cyclic constrained)
T21 peptide: DKFSEFWDRDPEV
How it was run: as §1

ApoC3 peptide … W65Y = biological target: T22, ApoC3 peptide … W65Y (human, not fully specified (bridges); also: cyclic constrained, ring type and places not given here)
T22 peptide: DKFSEFYDLDPEV
How it was run: as §1

ApoC3 peptide … F61T = biological target: T23, ApoC3 peptide … F61T (human, not fully specified (bridges); also: cyclic constrained)
T23 peptide: DKTSEFWDLDPEV
How it was run: as §1

ApoC3 peptide … D68H = biological target: T24, ApoC3 peptide … D68H (human, cyclic constrained)
T24 peptide: DKFSEFWDLHPEV
How it was run: as §1

ApoC3 peptide … V71Q = ApoC3 peptide … V71Q (human, cyclic constrained)
How it was run: as §1

ApoC3 peptide … D66V = biological target: T25, ApoC3 peptide … D66V (human, not fully specified (bridges); also: cyclic constrained)
T25 peptide: DKFSEFWVLDPEV
How it was run: as §1

ApoC3 peptide … F61Y = biological target: T26, ApoC3 peptide … F61Y (human, not fully specified (bridges); also: cyclic constrained)
T26 peptide: DKYSEFWDLDPEV
How it was run: as §1

ApoC3 peptide … D68C = biological target: T27, ApoC3 peptide … D68C (human, not fully specified (bridges); also: cyclic constrained)
T27 peptide: DKFSEFWDLCPEV
How it was run: as §1

ApoC3 peptide … F64R = biological target: T28, ApoC3 peptide … F64R (human, not fully specified (bridges); also: cyclic constrained)
T28 peptide: DKFSERWDLDPEV
How it was run: as §1

ApoC3 peptide … D59G = biological target: T29, ApoC3 peptide … D59G (human, cyclic constrained)
T29 peptide: GKFSEFWDLDPEV
How it was run: as §1

B1: anti-ApoC3 antibody 6A6 (antibody, V domains shown)
VH: EVQLVESGGGLVQPGGSLRLSCAASGFTFSSYAGRWVRQVPGKGLEWVSSINAGGGSTSYADSVKGRFTISRDNAKNTLYLQMNSLKPEDTAKYYCTQNSYRYWGQGTRVAVSS
VL: DVVLTQTPGSLSVVPGESASISCKASQSLIHTDGKTYLYWLLQKPGQRPQLLIYQVSSHESGVPDRFTGSGSGTDFTLKISGVKAEDAGVYYCAQATYNPRTFGQGTKLEIK
notes: it was detected with goat anti-human IgG (Fc); also called mAb 6A6; llama antibody 6A6
% of binding to wild-type peptide (ApoC3 peptide … D59S): 87.5%
% of binding to wild-type peptide (ApoC3 peptide … F61P): 79%
% of binding to wild-type peptide (ApoC3 peptide … K60I): 116%
% of binding to wild-type peptide (ApoC3 peptide … F64S): 196%
% of binding to wild-type peptide (ApoC3 peptide … F61Q): 64.5%
% of binding to wild-type peptide (ApoC3 peptide … W65H): 17%
% of binding to wild-type peptide (ApoC3 peptide … E70L): 1.22%
% of binding to wild-type peptide (ApoC3 peptide … F64T): 215%
% of binding to wild-type peptide (ApoC3 peptide … V71E): 228%
% of binding to wild-type peptide (ApoC3 peptide … K60A): 120%
% of binding to wild-type peptide (ApoC3 peptide … K60L): 89.2%
% of binding to wild-type peptide (ApoC3 peptide … E63H): 12.3%
% of binding to wild-type peptide (ApoC3 peptide … D66S): 0%
% of binding to wild-type peptide (ApoC3 peptide … V71P): 110%
% of binding to wild-type peptide (ApoC3 peptide … F64M): 109%
% of binding to wild-type peptide (ApoC3 peptide … D66C): 7.92%
% of binding to wild-type peptide (ApoC3 peptide … L67Q): 25.7%
% of binding to wild-type peptide (ApoC3 peptide … L67S): 26.5%
% of binding to wild-type peptide (ApoC3 peptide … D66G): 0%
% of binding to wild-type peptide (ApoC3 peptide … D66H): 0%
% of binding to wild-type peptide (ApoC3 peptide … D59Y): 70.2%
% of binding to wild-type peptide (ApoC3 peptide … D68N): 0%
% of binding to wild-type peptide (ApoC3 peptide … V71Y): 87.3%
% of binding to wild-type peptide (ApoC3 peptide … P69I): 81.9%
% of binding to wild-type peptide (ApoC3 peptide … W65E): 168%
% of binding to wild-type peptide (ApoC3 peptide … L67R): 22.6%
% of binding to wild-type peptide (ApoC3 peptide … W65Y): 26.7%
% of binding to wild-type peptide (ApoC3 peptide … F61T): 56.3%
% of binding to wild-type peptide (ApoC3 peptide … D68H): 0%
% of binding to wild-type peptide (ApoC3 peptide … V71Q): 81.4%
% of binding to wild-type peptide (ApoC3 peptide … D66V): 0%
% of binding to wild-type peptide (ApoC3 peptide … F61Y): 112%
% of binding to wild-type peptide (ApoC3 peptide … D68C): 5.29%
% of binding to wild-type peptide (ApoC3 peptide … F64R): 79.1%
% of binding to wild-type peptide (ApoC3 peptide … D59G): 87.5%
